Measurements from the nanobody polyreactivity screen of Harvey et al. (2022).

experiment: yeast display, Sf9 membrane polyspecificity reagent, FACS + sequencing; frameworks hold sequencing errors
Outline: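 Galactose-induced (36–48 hours) yeast carrying a synthetic nanobody display library were exposed to 10% biotinylated, detergent-solubilized Sf9 membrane reagent at 4 °C for 1 hour. FACS followed streptavidin microbead enrichment, using low and high (top ~1%) gates for expression (anti-HA) and reagent binding (streptavidin). Colony PCR, MiSeq 2 × 250 sequencing and CDR-length filtering followed. Labels for polyreactivity reflect the gate of origin.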

Sequence | polyreactivity (PSR sort gate)
QVQLVESGGGLVQAGGSLRLSSAASGSIFGSYAMGWYRQAPGKERELVAAITSGGSTYADSVKGRFTISRDNAKNTVYLQMNSLKPEDTAVYYCNAKFYQSTSNLVQSEYDYWGQGTQVTVSS | low polyreactivity
QVQLVESGGGLVQAGGSLRLSSAASGSIFGVNAMGVYRQAPGKERELVASITGGDSTNYADSVKGRFTISRDNAKNTVYFQMNSLKPEDTAVYYCAKDHYYRYCAAEFVTEYLYGFVYEYDSWGQGTQVTVSS | low polyreactivity
QVQLVESGGGLVQAGGSLRLSSAASGSIFQDNAMGWNRQAPGKERELVAAISVSGGSTYYADSVKGRFTISRDNAKNTVYLQMNSLKPEDTAVYYCAARARGYAWTYDYWGQGTQVTVSS | high polyreactivity
QVQLVESGGGLVQAGGSLRLSSAASGSIFRSNAMGWYRQAHGKERELVAAITSGTRTYYADSVKGRFTISRDNAKNTVYLQMNSLKPEDTAVFYCATKGSKYVRGYWGQGTQVTVSS | high polyreactivity
QVQLVESGGGLVQAGGSLRLSSAASGSIFRSYTMGWYRQAPGKERELVAAISGRAGSTYYADAVKGRVTISRDNAKNTVYLQMNSLKPEDTAVYYCAVKLGGRSQSYYWGQGTQVTVSS | high polyreactivity
QVQLVESGGGLVQAGGSLRLSSAASGSIFSYNVMGWYRQAPGKERELVAAISWNDGSTYYADSVKGRFTISRDNAKNTVYLQMNSLKPEDTAVYYCAAEYGRRWHNELDYWGQGTQVTVSS | low polyreactivity
QVQLVESGGGLVQAGGSLRLSSAASGSIFTGSALGWYRQAPGKEREFFARITKRGVSTYYADSVKGRFTISRDKAKNTVYLHMNSLKPEDTAVYYCNADRKFPYGSYETHDYWGQGPQVTVSS | high polyreactivity
QVQLVESGGGLVQAGGSLRLSSAASGSIFVPYAMGWYRQAPGKEREFVAAIYSGGGNTYYADSVKGRFTISRDNAKNTVYLQMNSLKPEDTAVYYCAAAYVYSSWSRYDYWGQGTQVTVSS | high polyreactivity
QVQLVESGGGLVQAGGSLRLSSAASGSIFWYYAMGWYRQAPGKERELVADITIRGGRTYYADSVKGRFTISRDNAKNTVYFQMNSLKPEDTAVFYCAADWEYWGFGLYDYWGQGTQVTVSS | low polyreactivity
QVQLVESGGGLVQAGGSLRLSSAASGSIFYQYAMGWYRQAPGKERQLVAAISRSGGSTYYAESVKGRFTISRDNAKNTVYLQMNSLIPEDTAVYYCATDIYSRWAGYKRSQYDYWGQGTQVTVSS | high polyreactivity
QVQLVESGGGLVQAGGSLRLSSAASGSIYYPYAMGWYRQAPGKERELVAAIRNGGSTYYADSVKGRFTISRDNAKNTVYLQMNSLKPEETAVYYCNAVYTGPTYGPHRKENYYWGQGTQVTVSS | high polyreactivity
QVQLVESGGGLVQAGGSLRLSSAASGSNFGYKAMGWYRQEPGKEREMVAAISYSGASTYYADSVKGRFTISRDNAKNTVYLQKHSLKPEDTAVYYCAAGWKRFSGRKHYYWGQGTQVTVSS | high polyreactivity
QVQLVESGGGLVQAGGSLRLSSAASGSNFSRNTMGWYRQAPGKERELVAAITRGGSTDYADSVKGRFTISRDNAKNTVDLQMNSRKPEDTAVYYCAKKNPGWGKFDYWGQGTQVTVSS | low polyreactivity
QVQLVESGGGLVQAGGSLRLSSAASGSTFFSNAMGWYRQAPGKERELVATIRFGGGSTYADSVKGRFTISRDNAKNTVYLQMNSLKPEDTAVYYCAADDSDKRYTRSWYGYWGQGTQVAVSS | low polyreactivity
QVQLVESGGGLVQAGGSLRLSSAASGSTFKVNARGWYRQAPGKERELVAGITSSDSTKYADSVKGRFTISRDNAKNTVYLQMNSLKPEDTAVYYSAAETKFSRTSEGDYWGQGTQVTVSS | low polyreactivity
QVQLVESGGGLVQAGGSLRLSSAASGSTFNLYAMGWYRQAPGKERELVAAISRRGGSTYYADSVKGRFTISRDNAKNTVYLQMNSLKPEDTAVYYCAAVVVTGQGDKYDYWGQGTQVTVSS | high polyreactivity
QVQLVESGGGLVQAGGSLRLSSAASGSTFNSYAMGWYRQAPGKERELVAGITSRGTSTYYADSVKGRFTISRDNAKNTVYLQMNSLKPEDTAVYYCNKYHYWASPMNYWGHGTQVTVSS | high polyreactivity
QVQLVESGGGLVQAGGSLRLSSAASGSTFRFNAMGWYRQAPGKERELVATISSGGRTYYADSVKGSFTISRDNAKNTVYLQMNSLKPEDTAVYYCAARTGYFLGRFDYWGQGTQVTVSS | high polyreactivity
QVQLVESGGGLVQAGGSLRLSSAASGSTFWYYAMGWYRQAPGKERELVAGITQSGGSTYYADSVKGRFTISRDNAKNTVYLQMNSLKPEDTAVYYCAKDGRVSGDFDYWGQGTQVTVSS | low polyreactivity
QVQLVESGGGLVQAGGSLRLSSAASGSTIGGYAMGWYRQAPGKERELVAAITRSGGRTYYADSVKGRFTISRDNSKNTVYLQMNSLKPEDTAVYYCATLVTIGRYDSWGQGTQVTVSS | high polyreactivity
QVQLVESGGGLVQAGGSLRLSSAASGSTIGVNARGWYRQAPGKERELVAAISSSGSSTYADSVKGRFTISRDNAKNTVYLQMNSLKPEDTAVYYCNKEWYPYKHNYWGQGTQVTVSS | low polyreactivity
QVQLVESGGGLVQAGGSLRLSSAASGSTIRTNAMGWYRQAPGKATELVAAISKSGGRTYYADSVKGRFTISRDNAKNTVYFQMNSLKPEDTAVYYCNVPRDVVPKVRAHDYWGQGTQVTVSS | high polyreactivity

Sequence | polyreactivity (PSR sort gate)
QVQLVESGGGLVQAGGSLRLSSAASGSTLTFNAMGWYRQAPGKERELVAAISWSDTDTYYADSVKGRFTISRDNAKNTVYLQMNSLKPEDTAVYYCAATVSAYEMDYWGQGTQVTVSS | low polyreactivity
QVQLVESGGGLVQAGGSLRLSSAASGSTSPRNAMGWYRQAPGKERELVAAISSGGRTNYADSVKGRFTISRDNAKNTVYFQMHSLKPEDTAVYYCAAVVHSTYWAQGTQVTVSS | low polyreactivity
QVQLVESGGGLVQAGGSLRLSSAASGTFWWYAMGWYRQAPGQEMELVASINRGGSTYYADSVKGRFTISRDNAKNTVYLQMNSLKPEDTAVYYCAAQVDRKYRWFNSWGQGTQVTVSS | high polyreactivity
QVQLVESGGGLVQAGGSLRLSSAASGYIFDRYTMGWYRQAPGKERELVASISRRGGSTYYADSVKGRFTISRDNAKNTVYLQMNSLKPEDTAVYYCAAPNALGYLFQGFDYWGLGTQVTVSS | high polyreactivity
QVQLVESGGGLVQAGGSLRLSSAASGYIFGANGMGWYRQAPGKERELVATITSGGRTYYADSVKGRFTISRDNAKNNVYLQMNSLKPEDTAVYYCAAKLQYRWTWGYYYWGQGTQVTVSS | high polyreactivity
QVQLVESGGGLVQAGGSLRLSSAASVSTVTPYAMGWYRQAPGKERELVAVISESGGSTYYADSVKGRFTISRDNAKNTVYLQMNSLKPEDTAVYYCAKASYPEVLYYFFRGYTFDSWGQGTQVTVSS | low polyreactivity
QVQLVESGGGLVQAGGSLRLSSAATGRTFASNAMGWYRQAPGKERELVAAIRYRGDRTSYADSVKGRFTISRDNAKNTVYLQMNSLKPEDTAVYYCAAYYNSHGLDYWGQGTQVNVSS | low polyreactivity
QVQLVESGGGLVQAGGSLRLSSAATGRTFASYAMGWYRPAPGKERELVAVITRGVRTYYADSVKGRFTISRDNAKNTVYLEMNSLKPEDTAVYYCAKERYNANYDTSLYDYWGQGTQVTVSS | low polyreactivity
QVQLVESGGGLVQAGGSLRLSSAAYGIIIGYYAMGWYRQPPGKERELVAAISWSGGSTYYADSVKGRFTISRDNAKNTVYLQMNSLKPEDTAVYYCAAVVRRKSGNDTWRYNYWGQGTQVTVSS | high polyreactivity
QVQLVESGGGLVQAGGSLRLSSAPSGIIIDYYAMGWYRQSPGKERELVAAITSGGSTSYADSEKGGFTISRDNAKKTVYLQMNSLKPEDTAVYYCNTEPSGYESGYWGQGTQVTVSS | low polyreactivity
QVQLVESGGGLVQAGGSLRLSSAPSGSTFPGYAMGWYRQAPGKERQLVAAITGRGTSTYYADSVKGRFTISRDNAKNTVYLQMNSLKPEDTAVYYCAPYATFPTRYYYWGQGTQVTVSS | high polyreactivity
QVQLVESGGGLVQAGGSLRLSSASSGSTFSLNAMGWYRQAPGTERELVAAISSSTGRTSYADSVKGRFTISRDNAKNTVYLQMTSLNPEDTAVYYCAADVYESLYFPYDSWRQGTQVTVSS | low polyreactivity
QVQLVESGGGLVQAGGSLRLSSGASGLTIRRYAMGWSRQAPGKEREFVATISQNGGRTYYADSVKGRFTISRDNAKNTFYLQMNSLKPEDTAVYYCAAEDWRWGYDYWGQGTQVTVSS | high polyreactivity
QVQLVESGGGLVQAGGSLRLSSGASGRIFAVYAMGWYRQAPGKERELVAAISYIGGSTYYADSVKGRFTISRDNAKNSVYLQMNSLKPEDTAVYYCATDSHDDTGAYDYWGQGTQVTVSS | low polyreactivity
QVQLVESGGGLVQAGGSLRLSSPASGFNFKSNCMGWYRQAPGKERELIADIRRSVGSTYYADYVKGRFTISRDNAKNTVYLQMNSLKPEDTSVYYCNAKYIKGRDWGQCTQVTVSS | high polyreactivity
QVQLVESGGGLVQAGGSLRLSSPASGFTFLAYAMGWYRQAPGKERELVAAISASSGRTRYADSVKGRFTISRDNAKNTVYLQMISLKPEDTAVYYCAARYRGTYRRDYWGQGTQVTVSS | high polyreactivity
QVQLVESGGGLVQAGGSLRLSSSASGGIFRSYAMGWYRQAPGKERELVATITDRGGSTYYADSVKGRFTISRDNAKNTVYLQMNSLKPEDTAVYYCAAELVNRLWYRVVHFDYWGQGPQVTVSS | low polyreactivity
QVQLVESGGGLVQAGGSLRLSSSASGRIFVYYAMGWYRQAPGKERELVAAITYSVDSTYYADSVKARFTISRDNAKNTVYLQMNSLKPEDTAVYYCATDVDWAYGYQYEYWGQGTQVTVSS | low polyreactivity
QVQLVESGGGLVQAGGSLRLSSSASGSIFDGYAMGWYRQAPGKEREFVAAIRWGDGIKYYADSVKGRFTISRDNAKNTVYLQMNSLTPEDTAVYYCAAVQHGHEPRVQDSYDYWGQGTQVTVSS | low polyreactivity
QVQLVESGGGLVQAGGSLRLSWAASGGIFKVYGMRWYRQAPGKERELVAAISWTTGGTYYADSVKGRFTISRDNAKNTVYLQMNSLKPEDTAVYYCAAEYADSWSAFDWNYYYWGQGTQVTVSS | high polyreactivity
QVQLVESGGGLVQAGGSLRLSWAASGRIIYGYAMGWYRQAPGKERELVAAITATYYADSVKGRFTISRDNAKNTVYLQMNSLKPEDTAVYYCNAYLYPKQPLSPPDPTFEGGYWGQGTQVTVSS | low polyreactivity
